Experimental data from patent publication US20220064648, “NOVEL X-[…] FOR THE USE IN DETECTION OF SNAP25” (Galderma Holding S.A., published 2022).

T1: SNAP25 Peptide 3 (PEP3; only a fragment of it is a SNAP25 subsequence) (Homo sapiens, UniProt P60880 SEQ:1-33)
T1 chain: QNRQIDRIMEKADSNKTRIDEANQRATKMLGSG

T2: SNAP25 Peptide 1 (PEP1) (Homo sapiens, UniProt P60880 SEQ:1-35)
T2 chain: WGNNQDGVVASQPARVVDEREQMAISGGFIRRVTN

B1: PEP 3.20 (ssDNA)
DNA: TTTTTAAGCCCACAGTTCTGTGTTCATCACAGAGCAACACTGTGGGCCCATG
modifications: W indole, X amine, Y phenol modified dU [16, 17, 23, 24 (indole dU), 19 (phenol dU), 27 (amine dU)]
B2: PEP 1.02 (ssDNA)
DNA: TTTTTAACACGACCATCCTGTGCCTCACGAACTCATTGCCCGTCGTGCCATG
modifications: W indole, X amine, Y phenol modified dU [16,19,25,36,43,46]
B3: PEP 1.20 (ssDNA)
DNA: TTTTTAACACGACGAACCTGTGCTCAACACAGAACATCACAGTGGGCCCATG
modifications: W indole, X amine, Y phenol modified dU [19,24]
B4: PEP 1.22 (ssDNA)
DNA: TTTTTAACACGACTTGGGTTCGGAAGGCGAACCGCAGCAATGTGGGCCCATG
modifications: W indole, X amine, Y phenol modified dU [14,15,19,20]
B5: PEP 1.16 (ssDNA)
DNA: TTTTTAACACGACGGGCCTGTGAACACCGAACTGATGGGTCGTGGGCCCATG
modifications: W indole, X amine, Y phenol modified dU [19 (Y phenol dU); 36,40 (W indole dU)]
B6: PEP 1.08 (ssDNA)
DNA: TTTTTAACACGACCCCGGTTCGACTCCCACAGAGCGGGGGTGTCGTGCCATG
modifications: W indole, X amine, Y phenol modified dU [19 (W indole dU); 20,46 (Y phenol dU); 25,43 (X amine dU)]
B7: PEP 1.06 (ssDNA)
DNA: TTTTTAAGCCCACCTCAGTTCGCTCATCGAACGACGATGCTGTGGGCCCATG
modifications: W indole, X amine, Y phenol modified dU [15,20 (Y phenol dU); 19,24,38 (W indole dU); 27 (X amine dU)]
B8: PEP 1.11 (ssDNA)
DNA: TTTTTAACACGACGCCAGTTCGAAGGTCACAGTTATTTGGCGTCGTGCCATG
modifications: W indole, X amine, Y phenol modified dU [19,36,38 (W indole dU); 20,34,46 (Y phenol dU); 27,43 (X amine dU)]
B9: PEP 1.24 (ssDNA)
DNA: TTTTTAACACGACCGCCCTGTGGGCAACACAGGGATCTGCAGTCGTGCCATG
modifications: W indole, X amine, Y phenol modified dU [19,36,38,43,46]
B10: PEP 1.04 (ssDNA)
DNA: TTTTTAACACGACGCTCCTGTGACAGCCGAACATCATTGGTGTCGTGCCATG
modifications: W indole, X amine, Y phenol modified dU [16,19,34,38,43,46]
B11: PEP 1.14 (ssDNA)
DNA: TTTTTAAGCCCACCTGACTGTGGTGGGCACAGTTCGCCATCGTGGGCCCATG
modifications: W indole, X amine, Y phenol modified dU [15,19,34 (Y phenol dU); 24,40 (W indole dU)]
B12: PEP 1.12 (ssDNA)
DNA: TTTTTAAGCCCACAAAAGTTCGATCAGCACAGGTCGCCAAAGTCGTGCCATG
modifications: W indole, X amine, Y phenol modified dU [19,24 (W indole dU); 20,34,46 (Y phenol dU); 43 (X amine dU)]
B13: PEP 1.10 (ssDNA)
DNA: TTTTTAACACGACGGGCGTTCGCTGGTCGAACACCAATGCTGTGGGCCCATG
modifications: W indole, X amine, Y phenol modified dU [19,24,38 (W indole dU); 20 (Y phenol dU); 27 (X amine dU)]
B14: PEP 1.01 (ssDNA)
DNA: TTTTTAACACGACGCGACTGTGAGAGGCACAGTTTGGGGGCGTGGGCCCATG
modifications: W indole, X amine, Y phenol modified dU [19,34,35]
B15: PEP 1.15 (ssDNA)
DNA: TTTTTAAGCCCACCTCTCTGTGGGAGACACAGTTATTGCAGGTGGGCCCATG
modifications: W indole, X amine, Y phenol modified dU [15,19,34 (Y phenol dU); 17,36 (W indole dU)]
B16: PEP 1.23 (ssDNA)
DNA: TTTTTAAGCCCACTTCACTGTGGCTCGCACAGGCCGATGGGGTCGTGCCATG
modifications: W indole, X amine, Y phenol modified dU [14,15,19,25,38,43,46]
B17: PEP 1.21 (ssDNA)
DNA: TTTTTAAGCCCACCGGTCTGTGGTTCCCACAGTGCATGCGAGTGGGCCCATG
modifications: W indole, X amine, Y phenol modified dU [17,19,24,25]
B18: PEP 1.05 (ssDNA)
DNA: TTTTTAAGCCCACCAAGCTGTGGCGGGCACAGGGCAGCATCGTCGTGCCATG
modifications: W indole, X amine, Y phenol modified dU [19,40,43,46]
B19: PEP 1.07 (ssDNA)
DNA: TTTTTAACACGACTCAACTGTGATTCCCACAGACTGGGCTCGTGGGCCCATG
modifications: W indole, X amine, Y phenol modified dU [14,25 (X amine dU); 19,35 (Y phenol dU); 24,40 (W indole dU)]
B20: PEP 1.03 (ssDNA)
DNA: TTTTTAACACGACGGGGGTTCGGGCAGCGAACAGATGGGCGGTGGGCCCATG
modifications: W indole, X amine, Y phenol modified dU [19,20,36]
B21: PEP 1.17 (ssDNA)
DNA: TTTTTAACACGACGGCGGTTCGCCTCCCGAACGTTGTTGGAGTCGTGCCATG
modifications: W indole, X amine, Y phenol modified dU [19,38 (W indole dU); 20,34,35,46 (Y phenol dU); 25,43 (X amine dU)]
B22: PEP 1.18 (ssDNA)
DNA: TTTTTAACACGACCACCCTGTGCAAGGCGAACTCCGTCAAAGTGGGCCCATG
modifications: W indole, X amine, Y phenol modified dU [19]
B23: PEP 1.19 (ssDNA)
DNA: TTTTTAACACGACATAGCTGTGACAGGCACAGGTCATGGGAGTCGTGCCATG
modifications: W indole, X amine, Y phenol modified dU [15,19,34,43,46]
B24: PEP 1.09 (ssDNA)
DNA: TTTTTAACACGACTTATCTGTGTCAGTCGAACGTCGCGGAGGTGGGCCCATG
modifications: W indole, X amine, Y phenol modified dU [14,27 (X amine dU); 15,19,34 (Y phenol dU); 17,23 (W indole dU)]

Target: T1, SNAP25 Peptide 3 (PEP3; only a fragment …)
Experiment: ELONA
Excerpt: (§1) The data in Table 2 was collected by running direct ELISA assays on the 96 X-aptamers, elucidating their ability to bind SNAP25, SNAP25 fragments (PEP1, PEP2, PEP3, and PEP4), and a negative control. The X-aptamers were biotinylated and immobilized onto streptavidin-coated plates and were utilized as detection molecules. Higher numbers represent strong binding. The negative control peptide is a random peptide to measure the amount of binding that occurs to a random amino acid sequence.

Binder	binding signal [ELISA signal]
B1	97

Target: T2, SNAP25 Peptide 1 (PEP1)
Experiment: ELONA
Excerpt: as §1

Binder	binding signal [ELISA signal]
B2	742
B3	188
B4	184
B5	212
B6	357
B7	477
B8	293
B9	160
B10	645
B11	241
B12	289
B13	293
B14	2240
B15	220
B16	168
B17	188
B18	641
B19	429
B20	677
B21	200
B22	200
B23	200
B24	337
